We go through six molecules from US20260265321A1, “PEPTIDE AND POLYPEPTIDE INHIBITING THE NF-KB SIGNALING PATHWAY” (Centre National de la Recherche Scientifique, priority 2023, published 2026).

Test [1] concerns the target T1, 6×His-IKKβ(1-669) EE (Homo sapiens, UniProt O14920, S177E/S181E).
T1 construct: a nearly full-length (residues 1-669) and constitutively active (S177E/S181E) mutant construct of human IKKβ; made in house; host or cells: Sf21 insect cells (baculovirus)
T1 sequence (O14920 1-669 S177E/S181E): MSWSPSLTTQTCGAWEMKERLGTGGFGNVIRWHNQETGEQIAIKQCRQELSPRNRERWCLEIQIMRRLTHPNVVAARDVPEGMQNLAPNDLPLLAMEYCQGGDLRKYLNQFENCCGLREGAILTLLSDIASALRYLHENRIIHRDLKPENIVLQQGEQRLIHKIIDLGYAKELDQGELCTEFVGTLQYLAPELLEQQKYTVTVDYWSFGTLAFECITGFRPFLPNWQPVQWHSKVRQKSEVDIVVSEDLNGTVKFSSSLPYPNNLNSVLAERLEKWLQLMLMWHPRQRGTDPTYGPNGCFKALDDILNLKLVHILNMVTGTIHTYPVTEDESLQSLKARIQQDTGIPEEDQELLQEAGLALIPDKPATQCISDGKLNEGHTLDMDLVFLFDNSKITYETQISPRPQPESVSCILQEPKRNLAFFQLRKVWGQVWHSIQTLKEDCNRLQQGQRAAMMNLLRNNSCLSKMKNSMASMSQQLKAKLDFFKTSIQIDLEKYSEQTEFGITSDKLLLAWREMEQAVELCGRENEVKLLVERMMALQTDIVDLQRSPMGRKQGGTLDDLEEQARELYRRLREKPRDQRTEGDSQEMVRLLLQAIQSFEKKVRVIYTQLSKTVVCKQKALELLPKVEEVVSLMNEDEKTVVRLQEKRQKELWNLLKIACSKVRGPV
In words: MBP-pulldown of recombinant IKKβ by MBP-peptide fusions. The format is binding. To be noted: 0.3 μM IKKβ, Western blot. How it is done:
Experiments were performed in PD buffer (20 mM Tris pH 8.0, 150 mM NaCl, 2 mM DTT). For each experiment, 10 μl of amylose resin (dry bead volume) coupled to MBP-fusion constructs were incubated with […] of purified 6×His-IKKα(10-667) EE and 6×His-IKKβ (1-669) EE constructs adjusted at a concentration of 0.3 μM for 2 hours at 4° C. After two quick washing steps with PD buffer, complexes were eluted by incubation with 20 μl of the same buffer supplemented with 20 mM maltose for 15 minutes at 4° C. After mild centrifugation, supernatants were recovered and migrated onto two separate 10% SDS-PAGE gels. One gel was used for Western blot analysis to detect His-IKKα or His-IKKβ using and anti-6×His antibody (Sigma, #SAB4301134), the other for Coomassie staining to detect MBP-fusion proteins. Quantification of band intensity was done using the Image J software.
(A western blot detects proteins with antibodies after separation by electrophoresis.)

In test [2] the target is T2, G1-IKKβ, full-length wt IKKβ fused to the Gluc1 fragment (human, UniProt O14920 1-756).
T2 construct: Expressed in HEK293T cells for GPCA; full-length; also called Gluc1-IKKβ; not shown: Gluc1 fragment of Gaussia princeps luciferase and flexible 20 amino acid linker, N-terminal
T2 sequence (looked up): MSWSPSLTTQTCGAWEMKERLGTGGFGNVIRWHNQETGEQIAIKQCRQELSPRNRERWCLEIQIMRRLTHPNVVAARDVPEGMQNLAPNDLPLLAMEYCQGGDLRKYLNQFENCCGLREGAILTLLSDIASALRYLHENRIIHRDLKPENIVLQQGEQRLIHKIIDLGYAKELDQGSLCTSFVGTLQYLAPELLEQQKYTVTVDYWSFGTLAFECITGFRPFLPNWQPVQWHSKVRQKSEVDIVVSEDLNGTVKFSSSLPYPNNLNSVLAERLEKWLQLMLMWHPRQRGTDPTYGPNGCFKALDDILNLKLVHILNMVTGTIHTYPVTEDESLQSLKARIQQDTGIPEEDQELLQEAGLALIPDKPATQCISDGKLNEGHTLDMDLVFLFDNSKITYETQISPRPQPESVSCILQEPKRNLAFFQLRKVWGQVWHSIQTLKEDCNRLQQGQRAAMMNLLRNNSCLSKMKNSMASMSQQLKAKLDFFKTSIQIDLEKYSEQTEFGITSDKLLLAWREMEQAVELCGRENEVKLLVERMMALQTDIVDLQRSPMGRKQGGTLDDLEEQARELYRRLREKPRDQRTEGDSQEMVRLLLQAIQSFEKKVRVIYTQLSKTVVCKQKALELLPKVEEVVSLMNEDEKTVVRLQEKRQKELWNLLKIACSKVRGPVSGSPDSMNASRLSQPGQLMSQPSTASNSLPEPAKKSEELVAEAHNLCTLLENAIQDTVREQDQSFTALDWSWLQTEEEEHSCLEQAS
Put plainly: GPCA (Gaussia princeps protein complementation assay) in HEK293T cells, NLR, mean ± SD of triplicates. How it is done:
(§1) HEK293T cells were transfected using the reverse transfection method. Transfection mixes containing 100 ng of pSPICA-N2 and 100 ng of pSPICA-N1 plasmids expressing test proteins plus JetPEI® (Polyplus transfection) were dispensed in white 96-well plates. HEK293T cells were then seeded on the DNA mixes at a concentration of 4.2×10^4 cells per well. 48 hours after transfection, cells were washed with 50 μl of PBS and lysed with 40 μl of Renilla lysis buffer (Promega, E2820) for 30 minutes with agitation. Gaussia princeps luciferase enzymatic activity was measured using a Berthold Centro LB960 luminometer by injecting 50 μl per well of luciferase substrate reagent (Promega, E2820) and counting luminescence for 10 seconds. Results are expressed as a fold change normalized over the sum of controls, specified herein as normalized luminescence ratio (NLR) 29. For a given protein pair A/B, NLR=(Gluc1-A+Gluc2-B)/[(Gluc1-A+Gluc2)+(Gluc1+Gluc2-B)]. All interactions were measured in three independent experiments, with each experiment being carried out in triplicate. The expression levels of Gluc1- and Gluc2-fused proteins were checked by Western blotting. 24 hours post-transfection, HEK293T cells were collected, lysed by incubation on ice and centrifuged. Aliquots of cleared supernatants were loaded onto an 10% SDS-PAGE gel.

Test [3] deals with T3, G1-IKKα, full-length wt IKKα fused to the Gluc1 fragment (human, UniProt O15111 1-745).
T3 construct: Expressed in HEK293T cells for GPCA; full-length; also called Gluc1-IKKα; not shown: Gluc1 fragment of Gaussia princeps luciferase and flexible 20 amino acid linker, N-terminal
T3 sequence (looked up): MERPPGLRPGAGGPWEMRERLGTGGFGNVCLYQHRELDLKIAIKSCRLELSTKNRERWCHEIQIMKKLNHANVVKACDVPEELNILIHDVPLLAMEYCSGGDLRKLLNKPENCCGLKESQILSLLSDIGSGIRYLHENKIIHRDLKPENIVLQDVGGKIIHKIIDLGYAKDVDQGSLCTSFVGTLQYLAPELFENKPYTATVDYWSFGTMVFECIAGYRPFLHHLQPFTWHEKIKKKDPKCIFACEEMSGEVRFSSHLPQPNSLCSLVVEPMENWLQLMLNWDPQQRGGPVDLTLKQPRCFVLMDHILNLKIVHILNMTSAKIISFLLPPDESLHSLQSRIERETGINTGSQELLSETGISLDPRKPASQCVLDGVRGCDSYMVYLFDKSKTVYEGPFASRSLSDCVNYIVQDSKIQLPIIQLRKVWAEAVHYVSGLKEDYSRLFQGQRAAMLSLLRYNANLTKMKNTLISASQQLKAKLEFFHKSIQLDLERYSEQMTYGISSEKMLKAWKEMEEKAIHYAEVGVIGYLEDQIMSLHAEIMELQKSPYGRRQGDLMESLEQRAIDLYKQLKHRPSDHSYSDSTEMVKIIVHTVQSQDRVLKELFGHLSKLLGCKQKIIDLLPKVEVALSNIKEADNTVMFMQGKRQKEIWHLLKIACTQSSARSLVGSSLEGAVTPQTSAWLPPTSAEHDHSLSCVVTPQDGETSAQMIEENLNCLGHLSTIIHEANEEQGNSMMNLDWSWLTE
The test is described as above. How it is done:
as §1

The target of test [4] is T3, G1-IKKα, full-length wt IKKα fused to …. In words: GPCA (Gaussia princeps protein complementation assay), G1-IKKα FL with G2-p100 constructs, NLR. How it is done:
as §1

For “DELPYDDCVFGGQRLTL [IκBα pep(s), 17 amino acid peptide from the IκBα C-terminus (residues 301-317)]”, the “interaction with IKKβ by pulldown” value in test [1] was “necessary and sufficient to interact with IKKβ”. Same read-out and setting: the value for “EFTEDELPYDDFVFGGQRLTL [C308F IκBα pep, IκBα pep with C308F substitution]” was “clearly enhance binding to IKKβ”.

B1: 73-317 YD/SS (other)
chain: DGDSFLHLAIIHEEKALTMEVIRQVKGDLAFLNFQNNLQQTPLHLAVITNQPEIAEALLGAGCDPELRDFRGNTPLHLACEQGCLASVGVLTQSCTTPHLHSILKATNYNGHTCLHLASIHGYLGIVELLVSLGADVNAQEPCNGRTALHLAVDLQNPDLVSLLLKCGADVNRVTYQGYSPYQLTWGRPSTRIQQQLGQLTLENLQMLPESEDEESYDTESEFTEFTEDELPSDSCVFGGQRLTL
notes: also called G2-IκBα 73-317 YD/SS; G2-IκBα(73-317) Y305S/D307S; not shown: N-terminal Gluc2 fragment of Gaussia princeps luciferase and the flexible 20 amino acid linker (pSPICA-N2)
B1: the binding result in test [2] and in test [3] was “binds” in each case.

B2: 39-852 (other)
chain: YLVIVEQPKQRGFRFRYGCEGPSHGGLPGASSEKGRKTYPTVKICNYEGPAKIEVDLVTHSDPPRAHAHSLVGKQCSELGICAVSVGPKDMTAQFNNLGVLHVTKKNMMGTMIQKLQRQRLRSRPQGLTEAEQRELEQEAKELKKVMDLSIVRLRFSAFLRASDGSFSLPLKPVISQPIHDSKSPGASNLKISRMDKTAGSVRGGDEVYLLCDKVQKDDIEVRFYEDDENGWQAFGDFSPTDVHKQYAIVFRTPPYHKMKIERPVTVFLQLKRKRGGDVSDSKQFTYYPLVEDKEEVQRKRRKALPTFSQPFGGGSHMGGGSGGAAGGYGGAGGGGSLGFFPSSLAYSPYQSGAGPMGCYPGGGGGAQMAATVPSRDSGEEAAEPSAPSRTPQCEPQAPEMLQRAREYNARLFGLAQRSARALLDYGVTADARALLAGQRHLLTAQDENGDTPLHLAIIHGQTSVIEQIVYVIHHAQDLGVVNLTNHLHQTPLHLAVITGQTSVVSFLLRVGADPALLDRHGDSAMHLALRAGAGAPELLRALLQSGAPAVPQLLHMPDFEGLYPVHLAVRARSPECLDLLVDSGAEVEATERQGGRTALHLATEMEELGLVTHLVTKLRANVNARTFAGNTPLHLAAGLGYPTLTRLLLKAGADIHAENEEPLCPLPSPPTSDSDSDSEGPEKDTRSSFRGHTPLDLTCSTKVKTLLLNAAQNTMEPPLTPPSPAGPGLSLGDTALQNLEQLLDGPEAQGSWAELAERLGLRSLVDTYRQTTSPSGSLLRSYELAGGDLAGLLEALSDMGLEEGVRLLRGPET
notes: also called G2-p100 39-852; not shown: N-terminal Gluc2 fragment of Gaussia princeps luciferase and the flexible 20 amino acid linker (pSPICA-N2)
On to B2, for which the binding result in test [4] was “binds”.

B3: 73-288 (other)
chain: DGDSFLHLAIIHEEKALTMEVIRQVKGDLAFLNFQNNLQQTPLHLAVITNQPEIAEALLGAGCDPELRDFRGNTPLHLACEQGCLASVGVLTQSCTTPHLHSILKATNYNGHTCLHLASIHGYLGIVELLVSLGADVNAQEPCNGRTALHLAVDLQNPDLVSLLLKCGADVNRVTYQGYSPYQLTWGRPSTRIQQQLGQLTLENLQMLPESEDEES
notes: also called G2-IκBα 73-288; IκBα(73-288); not shown: N-terminal Gluc2 fragment of Gaussia princeps luciferase and the flexible 20 amino acid linker (pSPICA-N2)
As to B3, the binding result in test [2] and in test [3] was “binds” each time.

B4: G2-IκBα FL (other, UniProt P25963 1-317, looked up)
chain: MFQAAERPQEWAMEGPRDGLKKERLLDDRHDSGLDSMKDEEYEQMVKELQEIRLEPQEVPRGSEPWKQQLTEDGDSFLHLAIIHEEKALTMEVIRQVKGDLAFLNFQNNLQQTPLHLAVITNQPEIAEALLGAGCDPELRDFRGNTPLHLACEQGCLASVGVLTQSCTTPHLHSILKATNYNGHTCLHLASIHGYLGIVELLVSLGADVNAQEPCNGRTALHLAVDLQNPDLVSLLLKCGADVNRVTYQGYSPYQLTWGRPSTRIQQQLGQLTLENLQMLPESEDEESYDTESEFTEFTEDELPYDDCVFGGQRLTL
notes: range 1-317; Expressed in HEK293T cells for GPCA; also called full-length IκBα; not shown: Gluc2 fragment of Gaussia princeps luciferase and flexible 20 amino acid linker, N-terminal
As to B4, the binding result in test [2] and in test [3] was “binds” each time.
